{
  "source": "the supplement of paper PMC9170038",
  "data": [
    {"tested_on": "MS2 coat protein", "test": "apparent KD of MS2 coat protein, switch OFF state (with FMN for OFF switches, without FMN for ON switches); designed switch direction (-1 OFF switch, 1 ON switch): -1; higher = weaker reporter binding", "conditions": "FMN input: 0 or 200 uM; Eterna round: R93 (includes R88 designs)", "in_short": "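Apparent KD was obtained for each design as the median of normalised binding-curve fits over its clusters. RNA switches transcribed on-chip from Illumina sequencing clusters were titrated with SNAP-549-labelled MS2 coat protein (twofold steps, 0.7 or 1.5 nM to 3 µM) in 100 mM Tris-HCl pH 7.5, 80 mM KCl, 4 mM MgCl2, without or with constant ligand.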", "units": {"apparent KD of MS2 coat protein": "nM"}, "values": [
      {"sequence": "AAAAAACAUGAGGAUCACCCAUGUGAGGAUAUGUACGAAAUAAAAUAAAAAUAAAAGUACAGAAGGCACAAAAA [Mat - Exclusion 1 - Eli mod - D4]", "apparent KD of MS2 coat protein": 46.6},
      {"sequence": "AGCAAGUUAGGAUAUGCGAAGUCAGGACACACACUGACAAAGCAGAAGGAACAUGAGGAUCACCCAUGUAAGCA [Mat - Exaclusion 4 - Eli mod - D64]", "apparent KD of MS2 coat protein": 20.8},
      {"sequence": "GGUUGAGAAGGAUAUACAUGAGGAUCACCCAUGUGAGAGAAAAAAGUGAGAAAGAAAAGUAGAAGGUCUUGACG [salish99-ex3-63]", "apparent KD of MS2 coat protein": 95.9},
      {"sequence": "AAAAAACAUGAGGAUCACCCAUGUGAGGAUAUGAUGCGAAUAAAGAAAGAAGAAAGCAUCAGAAGGCACAUAUG [Mod of Disincluded 3 (little more stable fmn state)]", "apparent KD of MS2 coat protein": 234},
      {"sequence": "AACAUGUCAGGAUAUUUAAGAAAAGAAAAGAAAGAAAAGAAAAAGAAGGGACAUGAGGAUCACCCAUGUAAGAA [EteRNA is fun!]", "apparent KD of MS2 coat protein": 56.8},
      {"sequence": "AAAAAGGCAGGAUAUACAUGAGGAUCACCCAUGUGAAAAAAAAAAAAAAAAAAAAAGUGUAGAAGGGUCAAAAA [Exclusion 3 - Omei 2]", "apparent KD of MS2 coat protein": 51.4},
      {"sequence": "AGCACGUCAGGAUAUACGAACACAAAGGGUAACAACAAGGGACAUGAGGAUCACCCAUGUAGAAGGGACUAGCA [Diamond 96]", "apparent KD of MS2 coat protein": 61.9},
      {"sequence": "AUAAAGACAGGAUAUACAUGAGGAUCACCCAUGUAAAAAAAAAAAUGAUCCUCAAAAAGUAGAAGGGUCAAUAA [JR_Exc003_Sub015]", "apparent KD of MS2 coat protein": 155},
      {"sequence": "CAAAGGUGAGGAUAUACAAGGAUAUGACGAAAGUCAUAAAAACAUGAGGAUCACCCAUGUAGAAGGCACCACAA [E2 64% 4]", "apparent KD of MS2 coat protein": 43.7},
      {"sequence": "AACAGUACAGGAUAUACAUGAGGAUCACCCAUGUGAAAAUUAAGUGGCGUACCACAAAGUAGAAGGGUACUGGA [Moding Maslow revisited (73) 3]", "apparent KD of MS2 coat protein": 86.4},
      {"sequence": "AAAAAUGGAGGAUAUACAUGAGGAUCACCCAUGUGUAACUAUACUAAGCACACCUCACGUAGAAGGCCAAAAAA [Gilly Gone Silly 12 - Jieux - Exclusion 3]", "apparent KD of MS2 coat protein": 321},
      {"sequence": "AACUGACAUGAGGAUCACCCAUGUCAGGAUAUGACUUCGAAAAAUAAAAUAAACGAUGUCAGAAGGGACAUGGA [Design 67: Sub-opt NB]", "apparent KD of MS2 coat protein": 41.1},
      {"sequence": "AAAAAGUGAGGAUAUACGCUGAAGAGUAGACACAACCAGGCGUAGAAGGCACAUGAGGAUCACCCAUGUCCAAA [Ex4 Malc#10]", "apparent KD of MS2 coat protein": 41.2},
      {"sequence": "AACUGUACAGGAUAUACAUGAGGAUCACCCAUGUGAGAAUUAAGUGGCGAACCACAAAGUAGAAGGGUACAGGA [Mat - Exclusion 3 - JL mod - D16]", "apparent KD of MS2 coat protein": 138},
      {"sequence": "AAGAACAGAGGAUAUACAUGAGGAUCACCCAUGUAAAAGAAAGAAAGGGAAAAGAAAAGUAGAAGGCUGAAGAA [Neferkare Heqawaset Amenemnisu]", "apparent KD of MS2 coat protein": 43.4},
      {"sequence": "ACAGUUACAGGAUAUACAUAGGAAAAAAAAAAAAAAAUUCAACAUGAGGAUCACCCAUGUAGAAGGGUAACUGA [Ex2 Design 173: Random 2B]", "apparent KD of MS2 coat protein": 144},
      {"sequence": "AGCUAGUGAGGAUAUACGAACAUGUCAAAAGACUGUAAGGGACAUGAGGAUCACCCAUGUAGAAGGCACUAGCA [Diamond 55]", "apparent KD of MS2 coat protein": 294},
      {"sequence": "AGCUAGUCAGGAUAUACGAACAUGUAAAAAGACGUGAAGGGACAUGAGGAUCACCCAUGUAGAAGGGACUAGCA [74%, Web mod - With 1 less C's]", "apparent KD of MS2 coat protein": 108},
      {"sequence": "GGGUAACAUGAGGAUCACCCAUGUGAGGAUAUGCUAGGGAUGGAAGCCAGGCCAAAAAGCAGAAGGUACUAAAG [Janelle Amethyst 18 Mod 16 - Jieux - Exclusion 1]", "apparent KD of MS2 coat protein": 34.3},
      {"sequence": "GGCUGGCGAGGAUAUACAUGAGGAUCACCCAUGUGAGAGAAAAAAGUGAGAAAGAAAAGUAGAAGGCGCUGGCG [salish99-ex3-55]", "apparent KD of MS2 coat protein": 81.4},
      {"sequence": "AACACACAUGAGGAUCACCCAUGUAAGGAUAUGCAAGCAAGAAGAAAGAACAGAAAAAGCAGAAGGUACACACA [Amethyst 74]", "apparent KD of MS2 coat protein": 24.3},
      {"sequence": "CCUAUGUCAGGAUAUCAGUAGUAAAAAAAAAAAAUUACUACUGAGAAGGGACAUGAGGAUCACCCAUGUACCUU [EX4 310: Super Stable 10]", "apparent KD of MS2 coat protein": 17.8},
      {"sequence": "GAAAAGUCAGGAUAUGUGGAAAAAAUAAAAAAAAUAAAAACACAGAAGGGACAUGAGGAUCACCCAUGUAAAAA [Mat - Exclusion 4 - Mayanna - D140]", "apparent KD of MS2 coat protein": 39},
      {"sequence": "GAAAAGUCAGGAUAUAUAGGAAAAAUAAAAAAAAUAAAACUAUAGAAGGGACAUGAGGAUCACCCAUGUUAAAG [Mat - Exclusion 4 - Mayanna - D132]", "apparent KD of MS2 coat protein": 25.5},
      {"sequence": "AAGAAGUGAGGAUAUACAUGAACGAAAAAAAAAAAGAGCAUGUAGAAGGCACAUGAGGAUCACCCAUGUCAAAA [Georg Simmel]", "apparent KD of MS2 coat protein": 27.8},
      {"sequence": "ACGAACCUAGGAUAUACAUGAGGAUCACCCAUGUACAACUAUCCAUGAAUGACACUCGGUAGAAGGAGGAUCAA [Rileenen]", "apparent KD of MS2 coat protein": 22.9},
      {"sequence": "AAAAAGUCAGGAUAUGUGAAAAAAAAAAAAAAAAAAAAAAAACAGAAGGGACAUGAGGAUCACCCAUGUAAAAA [water's exclusion 4 2nd]", "apparent KD of MS2 coat protein": 46.4},
      {"sequence": "AAGGAGUAAGGAUAUCGGAAAGGACACGAAAGUGACAAAGACGAGAAGGUACAUGAGGAUCACCCAUGUAAAAA [milkweed 23]", "apparent KD of MS2 coat protein": 14.5},
      {"sequence": "AAGAACAGAGGAUAUACAUGAGGAUCACCCAUGUAAAAGAAAGAAGGGAAAGAGAAAAGUAGAAGGCUGAAGAA [Titaru]", "apparent KD of MS2 coat protein": 31.7},
      {"sequence": "AAGAACGCAGGAUAUACAUGAGGAUCACCCAUGUAAAAGAAAGAAGGGAAAGAGAAAAGUAGAAGGGCGAAGAA [Usermaatre-setepenamun Iuput I]", "apparent KD of MS2 coat protein": 41.8},
      {"sequence": "AGCAAACAUGAGGAUCACCCAUGUCAGGAUAUGAACGAAAUAAAUAAAAAAUAAAAGUUCAGAAGGGACGAGCA [Mat - Exclusion 1 - Eli mod - D25]", "apparent KD of MS2 coat protein": 42.9},
      {"sequence": "AAAUAGACAGGAUAUGCAUGAAAAUUAAAAAAAAAAAAAAAACAUGAGGAUCACCCAUGUAGAAGGGUCAAAAA [Exclusion 2 - Omei 1]", "apparent KD of MS2 coat protein": 75.8},
      {"sequence": "AAAAAGUGAGGAUAUAUAUGAAACAAAAAGAAAAAAAAAAAACAUGAGGAUCACCCAUGUAGAAGGCGCAAAAA ['Exclusion 2' Lab]", "apparent KD of MS2 coat protein": 21.5},
      {"sequence": "AGGGAGUAAGGAUAUCGGAAAGGACACGAAAGUGACAAAGACGAGAAGGUACAUGAGGAUCACCCAUGUAAAAA [milkweed 24]", "apparent KD of MS2 coat protein": 21.6},
      {"sequence": "AAGAAGUCAGGAUAUGUCUGUGCGAAAAAAAAAAAGUGCAGACAGAAGGGACAUGAGGAUCACCCAUGUGGAAA [Florian 65% 7]", "apparent KD of MS2 coat protein": 55.3},
      {"sequence": "AGCUAGCUAGGAUAUACGAACAUGUCAAAAGACGUGAAGGGACAUGAGGAUCACCCAUGUAGAAGGAGCUAGCA [JL 74% mod 6]", "apparent KD of MS2 coat protein": 121},
      {"sequence": "AACAAGACAGGAUAUACAUGAGGAUCACCCAUGUCACAAUAAAGCAGCGCAACACAAAGUAGAAGGGUCAUGGA [Ruby 10]", "apparent KD of MS2 coat protein": 59.2},
      {"sequence": "AGUCUGAGAGGAUAUACAUAGGAAAAAAAAGUAAGAUCCCUACAUGAGGAUCACCCAUGUAGAAGGCUCUGACA [Ex2 Design 142: Sub-opt 6]", "apparent KD of MS2 coat protein": 67.7},
      {"sequence": "GAAAAACAUGAGGAUCACCCAUGUCAGGAUAUGCAGAAAAAGAAAAAAAGAAAAGAAAGUAGAAGGGACAAAAG [Mat - Same state - Mayanna Mod - D106]", "apparent KD of MS2 coat protein": 28.6},
      {"sequence": "CAGUACUGAGGAUAUACAUGAGGAUCACCCAUGUGUUAAAGCUAGGAAACUAGCAAAUGUAGAAGGCAGUACUG [Ex3: 817]", "apparent KD of MS2 coat protein": 47.9},
      {"sequence": "AACAGACAUGAGGAUCACCCAUGUAAGGAUAUCCAAAACGAUAAAACAAGAAUGACAGGGAGAAGGUACAGCAA [JR_Exc001_Sub007]", "apparent KD of MS2 coat protein": 49},
      {"sequence": "AACUAGUGAGGAUAUACAAGAAAACAAACAAAAAUGAAGGGACAUGAGGAUCACCCAUGUAGAAGGCACUAACA [Diamond 70]", "apparent KD of MS2 coat protein": 100},
      {"sequence": "AAGAAGGUAGGAUAUACAUGAGGAUCACCCAUGUAAAAGAAAGAAAAGGGAAAGAAAAGUAGAAGGACCAAGAA [Kheperkheperure Ay]", "apparent KD of MS2 coat protein": 44.3},
      {"sequence": "AAAACGGCAGGAUAUACAGAAGAGAUCACGAAAAAAAAAAAACAUGAGGAUCACCCAUGUAGAAGGGCCAAAAA [Ex2 Malc#4]", "apparent KD of MS2 coat protein": 66.3}
    ]}
  ]
}
